This is an account of results in the DeepSol protein solubility set.

A short description of the data set: soluble on expression in E. coli; label from the status in PepcDB or PDB records.
For the sequence “GPGSMSLTTTARTPATVGKLSPSSGIFSIPDNISPVTAEEVPKSRDSLLTDMSLSELSRQSVLQSEPVVLRLCHVGKSYPIAGSDERVVALKDITLAESKHSNAATTKQGASTTNCLQRSNLPPPFAPVRRGEFVMIRGPSGGGKTTLLNIIGSIDSCTEGNIELNGRIIDKDTKESVLADIRLKNIGFVFQTFNLIATMTAAENVELPMTLLGTMSTKAMRLRSRQLLTLVGLRNRINHLPSELSGGEQQRVTIARSLANNPSILLLDEPTGDLDTANTIEVMDLLMRINRRTKTTCIMVTHNPDIECYADRILYVSDGRFAKEVFNALPMCLDLENYTEYLAAKERAITGFAGVGDVEDDSEPRATAAMAECIGTKGCEIEKPNSSPVLMEPLTEGQSACSIVSPAASRSAVVQPLCPPAAATAPSVNGVTQTVLDTTHHGSASVPPASASSALLQREEREVPNGL”, the “soluble on expression in E. coli” value is “soluble”. With “GPGSMSTGAELLSKALQLQHTRCETYRLWDAKFHCALGGALSASDFETAVNNSIIAAFRCVSLSFRELQCLCRDSTDDACRFLCVWIDELQELEQRHYNISVQFAQLVVQHCTALPLHSSTSQTDMCQTAANEEAENSGVENGSKEVQGTADVSENEKSTVANGERNNSSEVICASLHDRQLCELQRIIPLQAQSVLNYVTCRDDFFPSSSDDECEGDQTGGDGCTSNGADSEPGDLLVPFHHKSGVVATYSPGEVKKRCATFNAAVMPLWRSKLRLRQQLQEKMDELQEEITSASSVFP”, the “soluble on expression in E. coli” value is given as “soluble”.

With “GPGSMSTTAYALVAEEKQYPLQVGKNVVGRSSVPVEGVSFINLESPLAAISRMQAFVDIGANGDAWISDCNSTNGTFLSISPGPGIRLEANRYYQLSPGCRIVFGDVVCTFETLSEAPPTPEHPAHLLTSHSRPTRKTESLGVVDALADSTATTTPARHPSKQLNAHRSNVPYLDESGSLLREPAASRETVATTKKTPRRERREPTAPSPPLKRAKVESAAPSSFLKVKTAATAKATTPARALAARPHVCLTGMDSDERVAVTKRVRELKGRVVDDITKANLLVVATPPVRTPKFIAAVARGIPVVSVDYICNRRAELDDARHHIVGLKTDQHTYTAAELKKVIYRKDASPLLQGVSFNIAALSSKTKSVAAEIISSSGGEVVSTKKGGGTALTDAQLDKLYDSILRGKVPDVL”, the “soluble on expression in E. coli” value is listed as “not soluble”. With “GPGSMSTTSSPDEASCDVEKEGKGISPVTRTGKRFAECALMDLPDKYSSAFPYLRGARLFFFDVVSKLNRIGARNKRVVFVTDYTIGVASKRGHVSRCAKVEDISELICDAQTRALGVRMRSRPFAIVPKDFSRWNCFHEMPVDLLLHATSAAQYEALINVLSFVHHTSTHEALLCRSLKQYETWKASLVLAPDGSRVKKAVQYYAIPVTPSERSTDAATLSATRSQETSASLSAVRAPRQVALLSAGDSASRFTSGPDVSATAPKLRHWSSLGASSSFTPSGVGGHRTALGLSPFSLSPSPAPPLVEFSRDIEAVPTSATRRGVNPLLKADRKAPNAS”, the “soluble on expression in E. coli” value is listed as “not soluble”. Consider “GPGSMSTWEQAVEEADKAFAKRDCKAVCEIIEKAESDGTCHVQLMWRRARALHTLGDESLDKSEKERYARDAAVAAERAVEEDPTSAEANLWKAICIGILCDYLTTKERMSNVYVIRDHLLRSLELKSDNPDALHGMGMWSLSLLQISWFERSAASLLFGSLPTVSHEECLKYFLASHELRPSIRNCLALGNLFRYQGNWTEAKTWYQKALDIPAETHAHKQKQDEAVQLLNSC”, for which the “soluble on expression in E. coli” value was “soluble”.

Take “GPGSMTERLSLSRDRINVLLLEGISQTAVEYFKSSGYTNVTHLPKALDKADLIKAISSAHIIGIRSRTQLTEEIFAAANRLIAVGCFSVGTNQVELKAARKRGIPVFNAPFSNTRSVAELVIGEIIMLMRRIFPRSVSAHAGGWEKTAIGSREVRGKTLGIVGYGNIGSQVGNLAESLGMTVRYYDTSDKLQYGNVKPAASLDELLKTSDVVSLHVPSSKSTSKLITEAKLRKMKKGAFLINNARGSDVDLEALAKVLQEGHLAGAAIDVFPVEPASNGERFSTPLQGLENVILTPHIGGSTEEAQERIGTEVTRKLVEYSDVGSTVGAVNFPQVQLPPRPTGTRFMHVHENRPGILNSLMNVFSHHHINIASQFLQTDGEVGYLVMEADGVGEASDAVLQEIREIPGTIRARLLY”: the “soluble on expression in E. coli” value is “soluble”. On to “GPGSMTKAASLKKGSGDKRAREASLQEATARKVKVETAAMLPKASHDSQAHPNLFSWLLNTSRGEFFRKYFERKHLVASHGSGEYFASGLPGVVPPVNWSTERMLEHVKTHPSRYGADLDIVKFDPKLKRRVSYRTKGLVDAAELEACMKDGWSVRFLRPNEFIESNSAFIGCIEKEFNCYCGANSYWTPANSQGFAPHYDDVDVFFLQLEGEKLWCLYDPPEDVDVLARHSSEDYAPERFPTPKHTITLKAGDVLYMPRGTVHQGKTTLKTHSLHITFSANQMNSWADFMSRAAQYTVETLAANKLEWRRALPRDMPQVMGEVNNPVFRDTHGLPALSANQQDHRANLQTKVREMVAELTLLLTDEVNMDVCADVYGKDTIQKLQPPSRTYSGAAPASRKLSHASRVRLISRNCMRLLLNVPGEARVYHIGQNSTVCLAGELGELRFEADFAPAIATLLSSYPKTMPVSALPFPGFDNSDDVAENQLLLVETLRDAGLLHVGSSAKGNAPS”, for which the “soluble on expression in E. coli” value is reported as “soluble”. Regarding “GPGSMTQNIIRRIFGNRELPENLSGSEYERYMQENFPKWIDEFEKGGFLEATKLPAIKSERDFLSKLIEHKDEIMVVKYWKHGCIPCLSLAEMYKQVSEQCKKENRRIAWYSVNTKDVSARSLVDYQLVNGTPTVQTFSRMKQVGKEIRAISAEELMRELSLREAALNTES”, the “soluble on expression in E. coli” value is given as “soluble”. As for “GPGSMTTSDELPANGELDQPERIPDVVECERLKKAGNDLFAADRVAEALELYREAIKHAPLKPVKKPTQHRQDEVPPCGSEGTAQNSIGESSVVSEKSSAPGTEKSSKVGADDAAQDGDDDGIDYTLTSQVYCNAGLCLSKQGMPEDAITHLSEAIRHNKQYSKAYYRRAECYYVLGKWSNAYGDYEEYEKLGGTLDAGSQDRKRQAKAKVDEEMQKMLGELKNMGNRFLNYFGLSTDNFKFDKDPNTGGYSVRFEQ”, the “soluble on expression in E. coli” value is “not soluble”. For the sequence “GPGSMTVVTTESGLKYEDLTEGSGAEARAGQTVSVHYTGWLTDGQKFDSSKDRNDPFAFVLGGGMVIKGWDEGVQGMKVGGVRRLTIPPQLGYGARGAGGVIPPNATLVFEVELLDV”, the “soluble on expression in E. coli” value is “soluble”.

Consider “GPGSMYNSGGEVRSYAQRVFALYSRENVLSVSRFCLAWYVLWGKQPNPTVTELLFGRCDASGDGNVTKYPKEICEEGYAAPLRGSSSDYCKRPSGVNTVAVGASVPPNATLQRRISEEEFVRFAVAYYDSMGNDASDLSDVPGAANPFHAVPRVAHWAHFIALAGDKGYVTLQDILETENVAWLRPPEYEDGDVNPKGVRGGGRAALLSHAFAIADSNKDGKVVFGDVENYMRPLSS”, for which the “soluble on expression in E. coli” value is listed as “not soluble”.

Regarding “GPGSMYVLYCCTMQGYSQLSGSSSDENIVHPLSSDGNTVTISPTYTLRMHFLPQHQVAKGAEKNNQIELSVAPTDALIINFPEGTEGSETEVMEQLIGTGRWQWVVPMRPFDGYDSTRSYRLKARRFPVAAGDDSNELTPPTIVHVPNISSIIEAGMRVSNRSQSGLHRSRGGVVCFVVGADPSVVRVPEGKKLLEQLFSEVGRSTISTATLGLRQLHNANWALFISPCRTNKLFAWKERLPSSSVSSGSLWWLCAAADVLLEINTAAEWVTAHFD”, the “soluble on expression in E. coli” value is recorded as “not soluble”.

As for “GPGSPSEENEGRQFIVCYYLADDTVSVFELQVPNSGHVGGKIFARRAVENLQDPTLLKVGNTIRLDGVDYLLKEMDERTKRYLEMGMPNMDESYFRTQEILGIAASYLQQQFSRITDAFRHYASSSTQGLTRENVREMLSDAGVHATDAELTNVMERADGDKDGWVSLADFTEQFMQQLFISNFKPRESQKRWGDTRNGVVVQRG”, the “soluble on expression in E. coli” value is reported as “soluble”.
